Experimental data as given in patent publication US20190345535.
Values joined by “and” are separate entries in the source; they are usually repeats but may differ in a detail not shown here. Equal entries are not always repeated.

Legend:
[1] = tested on: GFP^2-Pflu-H1-RLuc2 fusion protein
[2] = tested on: GFP^2-Pflu-H2-RLuc2 fusion protein
[3] = tested on: GFP^2-Pflu-H3-RLuc2 fusion protein
[4] = tested on: GFP^2-Pflu-H4-RLuc2 fusion protein
[5] = tested on: GFP^2-Pflu1-RLuc2 fusion protein (Pflu sensor 1)
[6] = tested on: GFP^2-Pflu2-RLuc2 fusion protein (Pflu sensor 2)
[7] = tested on: GFP^2-Pflu3-RLuc2 fusion protein (Pflu sensor 3)
[8] = tested on: GFP^2-plas1-RLuc2 fusion protein (BRET^2 plasmin sensor)

In the case of “crude bacterial protease from Pseudomonas fluorescens strain 65”, the “BRET^2 response to 1 nM bacterial protease in buffer, 10 minutes” value (shortened to “BRET^2 response … 10 minutes”) [1] is reported as 49.5%, the Bacterial protease response (%), BRET^2, 1 nM in UHT milk [1] is reported as 6.7% and the Selectivity (ratio of Bacterial protease response to Plasmin response), UHT milk [1] is reported as 1.3. The “BRET^2 response … 10 minutes” value [2] was 31.9%, the Bacterial protease response (%), BRET^2, 1 nM in UHT milk [2] was 6.6% and the Selectivity (ratio of Bacterial protease response to Plasmin response), UHT milk [2] was 0.8. For the same substance, the “BRET^2 response … 10 minutes” value [3] was 89.7%, the Bacterial protease response (%), BRET^2, 1 nM in UHT milk [3] was 36.3% and the “More responsive to 1 nM bacterial protease compared to Pflu H1 sensor, buffer” value [3] was 82%. For the same substance, the “More responsive to 1 nM bacterial protease compared to Pflu H2 sensor, buffer” value [3] was 182%, the “More responsive to 1 nM bacterial protease compared to Pflu H4 sensor, buffer” value [3] was 39% and the Selectivity (ratio of Bacterial protease response to Plasmin response), UHT milk [3] was 40.3. The Selectivity for bacterial protease over bovine plasmin, protease concentration by BSA standard [3] was 32 fold, the Selectivity for bacterial protease over bovine plasmin, raw milk [3] was 376 fold and the “BRET^2 response … 10 minutes” value [4] was 64.5%. For the same substance, the Bacterial protease response (%), BRET^2, 1 nM in UHT milk [4] was 17.1%, the Selectivity (ratio of Bacterial protease response to Plasmin response), UHT milk [4] was 2.7 and the “Reduction in the BRET ratio, 1 nM protease, UHT milk, 10 minutes” value [5] was 80.6% reduction in the BRET ratio with strain 65 bacterial proteases. The “Reduction in the BRET ratio, 1 nM protease, buffer, 10 minutes” value [5] was 95% reduction in the BRET ratio, the Selectivity for bacterial protease over bovine plasmin [5] was 238 fold and the Selectivity for bacterial protease over bovine plasmin, protease concentration by BSA standard [5] was 20 fold. For the same substance, the Selectivity for bacterial protease over human plasmin [5] was 174 fold, the Selectivity for bacterial protease over human plasmin, protease concentration by BSA standard [5] was 15 fold and the “Sensitivity to bacterial proteases relative to the plasmin sensor, raw milk, 10 minute incubation” value [5] was 10× more sensitive. The Linear range (10%-90% BRET^2 response), 50% full fat UHT milk, protease concentration by BSA standard [6] was 6.7 nM and 13.8 nM, the Selectivity for bacterial protease over human plasmin [6] was 353 fold and the Selectivity for bacterial protease over human plasmin, protease concentration by BSA standard [6] was 30 fold. For the same substance, the Selectivity for bacterial protease over human plasmin [7] was 563 fold, the Selectivity for bacterial protease over human plasmin, protease concentration by BSA standard [7] was 48.5 fold and the Linear range (10%-90% BRET^2 response), 50% full fat UHT milk [8] was 10 nM and 90 nM. For the same substance, the Linear range (10%-90% BRET^2 response), 50% full fat UHT milk, protease concentration by BSA standard [8] was 116 nM and 1040 nM, the Selectivity for bacterial protease over bovine plasmin [8] was 2 fold and the Selectivity for bacterial protease over bovine plasmin, protease concentration by BSA standard [8] was 0.2 fold. For the same substance, the Selectivity for bacterial protease over human plasmin [8] was 0.1 fold and the Selectivity for bacterial protease over human plasmin, protease concentration by BSA standard [8] was 0.01 fold.
For “crude bacterial protease from Pseudomonas fluorescens strain 117”, the “Reduction in the BRET ratio, 1 nM protease, UHT milk, 10 minutes” value [5] was 71.2% reduction with the bacterial protease from strain 117 and the “Reduction in the BRET ratio, 1 nM protease, buffer, 10 minutes” value [5] was 95% reduction in the BRET ratio.
